Kd data for one substance are collected here from article PMC6555802.

The test has as its target CHML (fluorescence titration) (human) (UniProt P26374). The test can be described thus: other fluorescence titration; fluorescence titration assay (Supplementary Fig. 8); conditions not stated in the text shown.

Chain of CHML (fluorescence titration) (human) (P26374 whole entry): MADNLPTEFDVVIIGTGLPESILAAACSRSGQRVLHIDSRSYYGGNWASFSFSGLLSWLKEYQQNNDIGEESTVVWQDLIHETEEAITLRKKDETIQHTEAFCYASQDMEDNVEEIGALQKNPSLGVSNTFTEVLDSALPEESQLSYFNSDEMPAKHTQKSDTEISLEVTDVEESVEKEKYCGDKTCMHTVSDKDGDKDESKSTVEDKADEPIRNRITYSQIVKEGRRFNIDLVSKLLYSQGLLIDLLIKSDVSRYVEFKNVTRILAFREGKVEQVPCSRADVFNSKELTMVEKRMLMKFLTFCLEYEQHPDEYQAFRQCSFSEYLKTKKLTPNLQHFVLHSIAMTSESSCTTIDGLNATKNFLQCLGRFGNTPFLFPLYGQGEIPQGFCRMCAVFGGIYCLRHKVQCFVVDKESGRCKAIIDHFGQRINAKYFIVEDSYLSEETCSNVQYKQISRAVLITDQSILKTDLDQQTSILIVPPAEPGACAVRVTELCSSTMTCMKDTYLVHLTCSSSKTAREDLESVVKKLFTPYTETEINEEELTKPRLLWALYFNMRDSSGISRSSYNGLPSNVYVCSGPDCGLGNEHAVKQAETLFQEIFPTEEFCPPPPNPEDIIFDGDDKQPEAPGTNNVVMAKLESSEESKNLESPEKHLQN

Turning to “Rab7A (fluorescence titration) (from UniProt P51149 1-207) (natural protein)”, the equilibrium dissociation constant (Kd) (usually the concentration at which binding is half-saturated) was 7.84 nM.
